Assay: soluble on expression in E. coli; label from the status in PepcDB or PDB records

| Sequence | soluble on expression in E. coli |
| --- | --- |
| AAKGTAETKQEKSFVDWLLGKITKEDQFYETDPILRGGDVKSSGSTSGKKGGTTSGKKGTVSIPSKKKNGNGGVFGGLFAKKD | soluble |
| AATITTSGTVLPTVTVAGHRAAIDEAPPLYKGGQVGSGARMGVLGNTAVMDTPFSVTSYSAQVIENNQARSVADIAAMDPSVRMSSARSNINEDLTMRGFSVSSADFALNGLFGLTPYWRAPLESIERVEVIKGPSAALFGMAPGSSVGGVVNLVPKRAGDTP | not soluble |
| AATSRTERIWPGGVIPYVIGGNFTGSQRAMFKQAMRHWEKHTCVTFIERSDEESYIVFTYRPCGCCSYVGRRGNGPQAISIGKNCDKFGIVVHELGHVIGFWHEHTRPDRDNHVTIIRENIQPGQEYNFLKMEPGEVNSLGERYDFDSIMHYARNTFSRGMFLDTILPSRDDNGIRPAIGQRTRLSKGDIAQARKLYRCPA | soluble |
| ADPEKSYAEGPGLDGGECFQPSKFKIHAVDPDGVHRTDGGDGFVVTIEGPAPVDPVMVDNGDGTYDVEFEPKEAGDYVINLTLDGDNVNGFPKTVTVKPA | soluble |
| ADPVMLEVFNNLFMSIAEQMGYRLQNTAYSVNIKERLDFSCAIFDAAGNLIANAPHMPVHLGSMGESIKTVMRANASRMRPGDAYVVNDPYHGGTHLPDVTVITPVFDRAGRDILFFVGSRGHHADIGGTTPGSMPPDSRTVEDEGVLFTNFQLVGNGEFRDREAREILASGRWPARNPDQNIADLHAQIAANEKGVQELLRMCDHFGLDVVRAYMGHVQDNAEEAVRRVISVLKDGRYTYRLDNGAVIEVAVRVDRQARSAVVDFTGTSGQLENNFNAPGAIAVAAVLYVFRTLVDDEIPLNAGCLKPLEIIIPEGSMLRPNPPASVVAGNVETSMCIVNALYGALGVLAASQGTMNNFTFGNARYQYYETISGGTGAGPLRIDAAGPADAGFAGTSVVQAHMTNSRLTDPEVLELRFPVRLESYEIRHGSGGAGRYRGGDGGVRRVRFLEPMTAAILSNNRRHVPFGLAGGGAGAMGRNYVERADGRVEPLGPQDSAELAAGDVFVVETPGGGDYGPA | not soluble |
| ADVYDIGRGAVMYVAGGKVSWAPRGGNEVKFEPVPKELKLVANRLHTSFPPHHVVDMSKFTFITPGSGVSMRVEYQYGCLPADTVPEGNCWWRLLDSLPPEVQYKEIRHANQFGYQTKHGVPGKYLQRRLQVNGLRAVTDTHGPIVIQYFSVKESWIRHLKLVEEPSLPGFEDLLRIRVEPNTSPLAGKDEKIFRFGSHKWYG | soluble |
| AEEGAVAVCVRVRPLNSREESLGETAQVYWKTDNNVIYQVDGSKSFNFDRVFHGNETTKNVYEEIAAPIIDSAIQGYNGTIFAYGQTASGKTYTMMGSEDHLGVIPRAIHDIFQKIKKFPDREFLLRVSYMEIYNETITDLLCGTQKMKPLIIREDVNRNVYVADLTEEVVYTSEMALKWITKGEKSRHYGETKMNQRSSRSHTIFRMILESREKGEPSNCEGSVKVSHLNLVDLAGSERAAQTGAAGVRLKEGCNINRSLFILGQVIKKLSDGQVGGFINYRDSKLTRILQNSLGGNPKTRIICTITPVSFDETLTALQFASTAKYMKNTPYVNEVSTDEALEHHHHHH | soluble |
| AEIKAVSAARLLDVASGKYVDNPLVIVTDGRITSIGKKGDAVPAGATAVDLPGVTLLPGLIDMHVHLDSLAEVGGYNSLEYSDRFWSVVQTANAKKTLEAGFTTVRNVGAADYDDVGLREAIDAGYVPGPRIVTAAISFGATGGHCDSTFFPPSMDQKNPFNSDSPDEARKAVRTLKKYGAQVIKICATGGVFSRGNEPGQQQLTYEEMKAVVDEAHMAGIKVAAHAHGASGIREAVRAGVDTIEHASLVDDEGIKLAVQKGAYFSMDIYNTDYTQAEGKKNGVLEDNLRKDRDIGELQRENFRKALKAGVKMVYGTDAGIYPHGDNAKQFAVMVRYGATPLQAIQSATLTAAEALGRSKDVGQVAVGRYGDMIAVAGDPLADVTTLEKPVFVMKGGAVVKAP | soluble |
| AERLPDFLAKIQPSEIFPGADRYGKPEGKPMVARVYKGDEQLGLVYITTDAVNTRGYSSKPIDTLMVLANDGTIAGAKLVDHHEPIMLIGIPHLPAPGRAIRSNWLPAYIKPNFTLTNRLRLKGLPTVPQPSKATGAGVP | not soluble |
| AGGLKYDLDLNLSHYKSVLKSMANPDYLYEYGALRTYVGGEIGEFWVYQTAGIFQNQAEVDEWNTAHGYKDQNGNWQPLQPVAKPGDIRFIDQNGDGMLDTNDRVKVGSGTPKVSLGFNINLTYKDFDLVANFYGDFGAKRYNYTKYQLERMDHVFNYGKNALNAWTPENPDTDIPRAVSGDPNKNSRTSTRFVENGDYLRLNNLQIGYNLPVKYCKKMGLSNLRIYVGATRLFTITNYKGYDPSTGSSVGQMGYDYAAIPLSRDFMMGLKFGF | not soluble |
| AGHRGQCVGRHREVVAIDNSKATNPHAADSALAGFSSVVWVAGGQLKGAEIDELIVRHAGRIKAVALLGVDRDVIEDSVRTHIPGIPVLSVSETDPRRAMDEAVAWSVSQAEAGDAIVLAPAAASLDMYTGMGQRGDMFATAI | not soluble |
| AGQGESGNPPATDKERFIASLMARMSNAEKIGQLRLVSVGADHPKEALMADIRAGKVGAIFNTVTRPDIRAMQDQVRHSRLKIPLFHAYDVAHGHRTIFPISLGLAASWDPEVVARSARISALEASADGLDMSFSPMVDITRDARWGRVSEGFGEDTYLTSLLSGVMVRAYQGSNLAAPDSIMAAVKHFALYGAAEGGRDYNTVDMSLPRMFQDYLPPYKAAVDAGAGAVMVSLNTINGVPATANRWLLTDLLRQQWGFKGLTISDHGAVKELIKHGLAGNERDATRLAIQAGVDMNMNDDLYSTWLPKLLAAGEIDQADIDRACRDVLAAKYDLGLFADPYRRLGKPDDPPFDTNAESRLHRQAAREVAREGLVLLKNRDGLLPLKKQGRIAVIGPLAKSQRDVIGSWSAAGVPRQAVTVYQGLANAVGERATLLYAKGANVSGDQAILDYLNSYNPEVEVDPRSAEAMLEEALRTARDADLVVAVVGESQGMAHEASSRTDLRIPASQRRLLKALKATGKPLVLVLMNGRPLSLGWEQENADAILETWFSGTEGGNAIADVLFGEHNPSGKLTMSFPRSVGQVPVYYNHLNTGRPMDHDNPGKYTSRYFDEANGPLYPFGYGLSYTEFSLSPLRLSSERLARGATLEARVTLSNSGKRAGATVVQLYLQDPVASLSRPVKELRGFRKVMLEPGESREIVFRLGEADLKFYDSQLRHTAEPGEFKVFVGLDSAQTESRSF | not soluble |
| AHHHHHHASAKWVCKICGYIYDEDAGDPDNGISPGTKFEELPDDWVCPICGAPKSEFEKLEDGSFKLYSLAREFARDLLFEINGDVVTLSIKGVLLANTSSTSSNFSIFEVSENEFILAIQTSGYVVYLGIEAEEEIEEEVYPSLVRIIISEVMPIINNLVQVAKELSYKGADILLDDNMSSSLREAMYNLLLKHKKGKSPYEQVEVA | soluble |
| AHHHHHHASAKWVCKICGYIYDEDAGDPDNGISPGTKFEELPDDWVCPICGAPKSEFEKLEDGSRFIDANVFIYAILKPKRELNEKELKIKRVSKEIFNRINGGEEVVTTVVHLSEVANVLEDAANLSFAISFLKDVLIKGNVIVEEVSDRDYMESVLLAEEKGVSINDALAYILMKRKGIEEIYTFDRHFENLDVRIVNS | soluble |
| AHHHHHHGSFRLRDFEYYNRTVFLRVDLNSPMSNGKIISDARFRAVLPTIKYLIESGAKVVVGTHQGKPYSEEYSTTEEHARILSELLNMHVEYVEDIFGKYARERIKAMKPGEVIVLENLRFSAEEVKNATIEECEKTFFVRKLSQVIDLVVNDAFAAAHRSQPSLVGFARIKPMIMGFLMEKEVDALTKAYESEEKPRVYVLGGAKVDDSLKVAENVLRKEKADLILTGGLVGQLFTLAKGFDLGRENIKFLEKKGILKYVDWAEKILDEFYPYVRTPVDFAIDFKGERVEIDLLSDEKRLFDEYPILDIGSRTVEKYREILLKARIIVANGPMGVFEREEFAVGTIGVFKAIGESPAFSVIGGGHSIASIYKYNITGISHISTGGGAMLTFFAGEKLPVLEALKISYEKFSNLLS | soluble |
| AHHHHHHGSGLISDADKKVIKEEFFSKMVNPVKLIVFVRKDHCQYCDQLKQLVQELSELTDKLSYEIVDFDTPEGKELAKRYRIDRAPATTITQDGKDFGVRYFGLPAGHEFAAFLEDIVDVSREETNLMDETKQAIRNIDQDVRILVFVTPTCPYCPLAVRMAHKFAIENTKAGKGKILGDMVEAIEYPEWADQYNVMAVPKIVIQVNGEDRVEFEGAYPEKMFLEKLLSALS | soluble |
| AHHHHHHGSGNNTEVIKMVEVRLENLTKKFGDFTAVNSLNLTIKDGEFLVLLGPSGCGKTTTLRMIAGLEEPTSGKIYFGDRDVTYLPPKDRNVSMVFQSYAVWPHMTVYENIAFPLKIKKYPKDEIERRVKWAAELLQIEELLDRYPAQLSGGQRQRVAVARAIVVEPDVLLMDEPLSNLDAKLRVAMRAEIKKLQQKLKVTTIYVTHDQVEAMTMGDRIAVMNRGKLLQVGSPTEVYLNPNSVFVATFIGAPEMNILEVSVGEGYLEGEGFKIELPDDIMEALRNYIGKTVLFGIRPEHMVIEGISELAHMRRTAKIKGVVDFVEALGTDTIVHVRFEESIIKVKLPGHIPLEIGKEVSVLIDLDKIHIFDKNSEKAII | soluble |
| AHHHHHHGSGRFKKVPSSLCPMKKPGDVLREILQEKGIKSVGTLSRKWPSGRDIYQELALLLLEGDGAIVELREETAESWDLNGKKVGPSKYAYVRPCFVEKFKVIVDGSEIAKRLPDYPWIIVDLTFWNRHIPKEKDKVALQLRETYAVVRRMYYPRRFAITWVNEEFKKKNKVPLEKVVSYEGSTADFLREKGINRVVLLDPNAEEVLSREDLQERAFIIGGIVDMKGDKKGTTAKIGEVLEKEGIDVLRRKIVLRGDIVGVPDRINHIAEILLRMLYGEDMEKAILAVQAPTHARWRLRKEIPKRKIRYLIDGKLYLVVEKELYDELKQWLNIRWEDFVKVLRETGMVALERRRIHHLNKISVFRFDKSGGKRVILLKRAALLCYNC | soluble |
| AHHHHHHGSIIELDEFTRVEGNGKAEIVIENGEVKDARVKIVEGPRFFEILTLGRDYWDVPDLEARICAICYIAHSVASVRAIEKALGIDVPESVEKLRELALWGEIIESHALHLYLLALPDVFGYPDAISMIPRHGELVKEGLTIKAFGNAIRELIGGREIHGINIKPGGFGRYPSEEELEKIAEHSKSLIKFARRIVGIFASQEAGGAVGEVLMATSDYLWGDELIINGERVQYYEVDEVPVGYSFAKHSYYKGNPVFVGALPRLLLKGESIEGEAARMLEEYRDKLESKYVIYNNLAQAIELLYALERVPQLVEEILSEGIERGNGEISQESGEGVGYVEAPRGVLVHHYRIENGKVVWSNTITPTAFNQRLMELSLLEEAKRLYGSESEENMKKRLEVIVRAFDPCISCSVHFVKL | soluble |
| AHHHHHHGSISETIRSGDWKGEKHVPVIEYEREGELVKVKVQVGKEIPHPNTTEHHIRYIELYFLPEGENFVYQVGRVEFTAHGESVNGPNTSDVYTEPIAYFVLKTKKKGKLYALSYCNIHGLWENEVTLE | soluble |
| AHHHHHHGSKEEEIHVDPQIVKNITEILKNIKKMKVKQDKRVKWRRENDGRIITFNPITGKICVMNPTLAEIYVMTKNPKGCTFETLIRTLKQRFPSIDEKQLESDILRAMTWLFINGFVYLEDTSKKSKKINIVDVIMEISNQKRGPRQ | not soluble |
| AHHHHHHGSKVYYPGREWPEEYKRVLEKMKEIIDPVTGDNILDSGVVAGLEVKDRTLKVWLRFESQAEYNILGGAAMAYSKIVGDIMEKFALVMFDNVYVYDLRNNIVGVFEKKK | not soluble |

— the DeepSol protein solubility set
